B1: CXCL12-Isotype (bispecific antibody, human IgG1, kappa, N297G)
chain: not shown
heavy: not shown
light: DIQMTQSPSSLSASVGDRVTITCRASQSVGSALAWYQQKPGKAPKLLIYSASSLYSGVPSRFSGSRSGTDFTLTISSLQPEDFATYYCQQSSYHHPITFGQGTKVEIKRTVAAPSVFIFPPSDSQLKSGTASVVCLLNNFYPREAKVQWKVDNALQSGNSQESVTEQDSKDSTYSLSSTLTLSKADYEKHKVYACEVTHQGLSSPVTKSF
notes: also called human CXCL12 isotype; isotype control of the CXCL12 bispecific
B2: CXCL12-Bevacizumab (bispecific antibody, human IgG1, N297G)
chain: not shown
heavy: not shown
light: not shown

What was measured:
CXCR4 = target: T1, CXCR4 (human (endogenous on a human cancer …, UniProt P61073 1-352)); assay: flow cytometry on MDA-MB-231 cells known to express CXCR4 and CXCR7
T1 construct: whole, on cells
T1 sequence (P61073 whole entry): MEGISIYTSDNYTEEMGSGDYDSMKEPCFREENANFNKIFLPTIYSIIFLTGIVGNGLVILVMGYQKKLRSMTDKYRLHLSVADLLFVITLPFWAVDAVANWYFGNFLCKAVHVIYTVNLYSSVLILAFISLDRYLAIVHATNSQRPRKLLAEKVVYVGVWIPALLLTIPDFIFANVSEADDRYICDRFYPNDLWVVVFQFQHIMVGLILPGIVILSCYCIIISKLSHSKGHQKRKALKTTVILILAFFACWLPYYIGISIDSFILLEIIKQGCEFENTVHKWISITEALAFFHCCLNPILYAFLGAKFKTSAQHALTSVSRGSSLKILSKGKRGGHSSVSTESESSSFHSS

CXCR7 = target: T2, CXCR7 (human (endogenous on a human cancer …, UniProt P25106 1-362)); assay: as above
T2 construct: whole, on cells; also called ACKR3
T2 sequence (P25106 whole entry): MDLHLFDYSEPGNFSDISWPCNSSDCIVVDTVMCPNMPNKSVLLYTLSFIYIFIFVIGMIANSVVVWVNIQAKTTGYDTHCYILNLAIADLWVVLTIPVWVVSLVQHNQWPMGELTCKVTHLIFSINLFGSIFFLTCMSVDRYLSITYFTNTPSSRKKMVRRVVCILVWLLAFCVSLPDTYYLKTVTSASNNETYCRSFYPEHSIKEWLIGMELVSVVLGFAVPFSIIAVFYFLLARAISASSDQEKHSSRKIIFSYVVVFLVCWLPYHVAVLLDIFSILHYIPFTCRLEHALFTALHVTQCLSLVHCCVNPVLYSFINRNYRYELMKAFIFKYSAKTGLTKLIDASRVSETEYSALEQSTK

mouse CXCR7 = target: T3, mouse CXCR7 (mouse, UniProt P56485 1-362); assay: flow cytometry on MC38 and CT26 mouse cells
T3 construct: whole, on cells; also called mouse CXCR7 receptors
T3 sequence (P56485 whole entry): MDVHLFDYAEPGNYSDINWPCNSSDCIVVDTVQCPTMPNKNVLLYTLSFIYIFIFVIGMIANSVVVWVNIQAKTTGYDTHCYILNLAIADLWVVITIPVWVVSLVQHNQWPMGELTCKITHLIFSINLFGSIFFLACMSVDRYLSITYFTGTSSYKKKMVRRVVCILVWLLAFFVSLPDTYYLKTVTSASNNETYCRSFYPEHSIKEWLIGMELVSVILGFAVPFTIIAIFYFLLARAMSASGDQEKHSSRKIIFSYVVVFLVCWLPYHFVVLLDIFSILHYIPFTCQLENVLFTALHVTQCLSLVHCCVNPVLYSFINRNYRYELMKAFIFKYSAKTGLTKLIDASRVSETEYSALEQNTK

VEGF-647 = VEGF-647 (UniProt P15692-4 27-191, biotinylated, pre-incubated with streptavidin-647); assay: cell-based or functional assay
Sequence of VEGF-647 (P15692 other isoform, or with tags, fused parts or gaps limits assumed): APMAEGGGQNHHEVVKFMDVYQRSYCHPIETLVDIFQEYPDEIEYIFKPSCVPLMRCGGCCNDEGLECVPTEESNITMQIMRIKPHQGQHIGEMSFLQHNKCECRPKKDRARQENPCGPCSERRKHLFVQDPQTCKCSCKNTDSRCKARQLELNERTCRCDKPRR

Row | Binder | binding result (CXCR4) | binding result (CXCR7) | binding result (mouse CXCR7) | fold increase in cellular fluorescence (VEGF-647 uptake), flow cytometry, HeLa cells, 24 hr (VEGF-647) [fold]
1 | B1 | binds | binds | binds | –
2 | B2 | – | – | – | 32

From patent US20240189423A1 (University of California, published 2024)
